In patent US20180237480A1 (UNIVERSITY OF EDINBURGH, published 2018):

T1: human fibrinogen (human, UniProt P02671 20-629; P02675 31-491; P02679 27-437)
T1 construct: The three chains are general knowledge about fibrinogen; also called human Fg
T1 sequence 1: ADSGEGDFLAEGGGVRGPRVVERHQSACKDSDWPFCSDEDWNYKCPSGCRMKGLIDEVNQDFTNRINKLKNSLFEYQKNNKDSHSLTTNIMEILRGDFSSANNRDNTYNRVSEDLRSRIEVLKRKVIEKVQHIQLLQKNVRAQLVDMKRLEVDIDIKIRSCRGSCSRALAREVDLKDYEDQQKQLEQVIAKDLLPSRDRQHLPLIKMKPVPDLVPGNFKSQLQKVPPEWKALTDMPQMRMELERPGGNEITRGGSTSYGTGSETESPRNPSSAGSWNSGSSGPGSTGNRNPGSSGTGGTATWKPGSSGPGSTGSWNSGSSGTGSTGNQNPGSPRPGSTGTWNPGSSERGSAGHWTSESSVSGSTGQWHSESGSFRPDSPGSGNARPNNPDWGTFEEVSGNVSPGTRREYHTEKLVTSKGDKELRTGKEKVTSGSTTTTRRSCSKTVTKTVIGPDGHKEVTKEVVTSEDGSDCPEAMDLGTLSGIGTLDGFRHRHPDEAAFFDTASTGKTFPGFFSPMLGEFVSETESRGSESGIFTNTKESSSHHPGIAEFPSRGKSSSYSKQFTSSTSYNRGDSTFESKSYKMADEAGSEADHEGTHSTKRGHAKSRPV
T1 sequence 2: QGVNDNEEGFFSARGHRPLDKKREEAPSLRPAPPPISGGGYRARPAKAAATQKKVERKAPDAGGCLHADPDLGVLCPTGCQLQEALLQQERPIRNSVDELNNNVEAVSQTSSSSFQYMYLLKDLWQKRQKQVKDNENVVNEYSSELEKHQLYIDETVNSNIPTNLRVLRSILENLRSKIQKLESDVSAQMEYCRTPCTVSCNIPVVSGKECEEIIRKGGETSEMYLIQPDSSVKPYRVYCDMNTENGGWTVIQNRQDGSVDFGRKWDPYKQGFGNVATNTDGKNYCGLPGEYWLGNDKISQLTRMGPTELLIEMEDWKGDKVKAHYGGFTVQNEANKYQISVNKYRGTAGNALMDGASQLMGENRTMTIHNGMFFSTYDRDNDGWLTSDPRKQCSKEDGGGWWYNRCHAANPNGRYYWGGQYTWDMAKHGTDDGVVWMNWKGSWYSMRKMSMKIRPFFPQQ
T1 sequence 3: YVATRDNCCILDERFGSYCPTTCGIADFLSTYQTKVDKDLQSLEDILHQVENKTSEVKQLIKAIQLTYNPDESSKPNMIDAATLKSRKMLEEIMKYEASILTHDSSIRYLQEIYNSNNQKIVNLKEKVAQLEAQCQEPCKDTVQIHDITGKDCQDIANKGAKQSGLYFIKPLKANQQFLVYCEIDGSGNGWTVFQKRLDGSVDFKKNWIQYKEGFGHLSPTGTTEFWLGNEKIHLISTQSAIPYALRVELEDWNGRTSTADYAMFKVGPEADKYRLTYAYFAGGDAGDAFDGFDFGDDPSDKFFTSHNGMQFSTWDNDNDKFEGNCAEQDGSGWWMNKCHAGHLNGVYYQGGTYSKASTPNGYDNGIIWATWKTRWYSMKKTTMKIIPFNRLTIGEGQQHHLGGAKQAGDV

T2: bovine fibrinogen (bovine, UniProt P02672 20-615; P02676 1-468; P12799 25-444)
T2 construct: The three chains are general knowledge about fibrinogen; also called bovine Fg
T2 sequence 1: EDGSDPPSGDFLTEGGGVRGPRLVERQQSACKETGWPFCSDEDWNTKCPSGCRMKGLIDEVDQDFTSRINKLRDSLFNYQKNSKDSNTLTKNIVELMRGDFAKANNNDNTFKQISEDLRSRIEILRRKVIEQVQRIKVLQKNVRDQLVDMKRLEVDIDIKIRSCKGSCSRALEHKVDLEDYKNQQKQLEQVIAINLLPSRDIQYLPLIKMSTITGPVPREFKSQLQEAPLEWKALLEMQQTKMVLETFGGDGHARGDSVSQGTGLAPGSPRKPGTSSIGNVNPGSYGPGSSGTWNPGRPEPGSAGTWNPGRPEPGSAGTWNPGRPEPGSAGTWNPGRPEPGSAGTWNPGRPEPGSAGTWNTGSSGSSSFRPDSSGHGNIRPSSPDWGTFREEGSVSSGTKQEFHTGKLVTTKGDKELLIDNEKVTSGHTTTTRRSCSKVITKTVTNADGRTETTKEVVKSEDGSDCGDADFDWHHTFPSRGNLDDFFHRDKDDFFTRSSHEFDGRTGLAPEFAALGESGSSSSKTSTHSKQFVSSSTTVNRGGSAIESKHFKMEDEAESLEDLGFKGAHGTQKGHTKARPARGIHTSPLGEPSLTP
T2 sequence 2: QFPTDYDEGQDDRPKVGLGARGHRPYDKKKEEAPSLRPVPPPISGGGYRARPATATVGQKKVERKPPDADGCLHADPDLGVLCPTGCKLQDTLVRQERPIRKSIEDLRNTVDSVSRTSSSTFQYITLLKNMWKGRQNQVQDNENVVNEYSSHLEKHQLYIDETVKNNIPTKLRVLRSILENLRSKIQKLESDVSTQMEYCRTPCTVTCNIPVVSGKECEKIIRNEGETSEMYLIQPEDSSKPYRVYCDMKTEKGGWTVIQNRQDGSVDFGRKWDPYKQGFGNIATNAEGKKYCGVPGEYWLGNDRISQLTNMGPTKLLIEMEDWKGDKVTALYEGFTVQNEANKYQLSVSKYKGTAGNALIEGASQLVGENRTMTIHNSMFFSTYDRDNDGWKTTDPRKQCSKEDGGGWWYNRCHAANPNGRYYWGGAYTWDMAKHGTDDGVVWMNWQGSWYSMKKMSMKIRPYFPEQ
T2 sequence 3: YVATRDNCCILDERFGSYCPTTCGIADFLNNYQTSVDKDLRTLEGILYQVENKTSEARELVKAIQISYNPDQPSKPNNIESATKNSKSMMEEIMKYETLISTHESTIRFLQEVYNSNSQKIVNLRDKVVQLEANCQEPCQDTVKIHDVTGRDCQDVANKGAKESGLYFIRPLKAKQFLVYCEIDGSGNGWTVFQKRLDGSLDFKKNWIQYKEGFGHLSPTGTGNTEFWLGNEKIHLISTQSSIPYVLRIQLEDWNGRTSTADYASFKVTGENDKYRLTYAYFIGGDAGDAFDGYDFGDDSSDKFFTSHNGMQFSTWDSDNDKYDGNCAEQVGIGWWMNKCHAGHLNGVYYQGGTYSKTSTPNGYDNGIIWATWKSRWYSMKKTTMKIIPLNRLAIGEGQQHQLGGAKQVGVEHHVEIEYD

T3: recombinant mouse cytokeratin 10 (mouse, UniProt P02535 454-570)
T3 construct: also called CK10; recombinant CK10
T3 sequence: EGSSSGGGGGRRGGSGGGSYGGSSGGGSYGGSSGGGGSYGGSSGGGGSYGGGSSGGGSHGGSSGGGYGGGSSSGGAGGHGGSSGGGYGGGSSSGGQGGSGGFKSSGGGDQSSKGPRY

B1: SpsO of S. pseudintermedius ED99, full-length, expressed on L. lactis MG1363 (pOri23) (other)
chain: SVKEGQQSINSSEKESADPTVVDLISKKETNLDGLDVSREETTKVPINENKRGEEQSISDKAITEKADTPVSNLSSKEVEEQGVSDKAITEKADTPVTNLSSKEAKEQGASDRVITEKADTPVSNLSSKEAKEQGASDRVITEKADTPVSNLSSKEVEEQGVSDKAIEKIADASATDLSSKEEVEQDISTQGKVKSKEAVQVESSQLQNLNSEINAEPNEIKAIDRSSILPLNLNDEENNKKVNKGTRVPEATLRNASNNQLNTRMRSVSLFRVARLTEINRNVNDKVKVSDIDIAIAPPHTNPKTGKEEFWATSSSVLKLKASYELDNSISKGDQFTIQFGQNIRPGGLNLPRPYNFLYDKDKKLVATGRYNKESNTITYTFTDYVDKHQNIKGSFEMNAFSRKENATTDKTAYPMDVTIANQKYSENIIVDYGNKKNAAIISSTEYIDLDGSRKMTTYINQNGSKNSIYRADMQIDLNGYKFDPSKNNFKIYEVENSSDFVDSFSPDVSKLRDVTSQFNIQYTNNNTMAKVDFGTNLWRGKKYIIQQVANIDDSKLVKNASINYTLNKMDFNNKRTVETHNNTYSTVKDKSTALGDVQESQSISESQSVSESESLSESQSISESESLSESQSISESESLSESQSISESESLSESQSISESESLSESQSISESESLSESQSISESESLSESQSISESESLSESQSISESESLSESQSISESESLSESQSISESESLSESQSISESESLSESQSISESESLSESQSISESESLSESQSISESESLSESQSISESESLSESQSISESESLSESQSISESESLSESQSISESESLSESQSISESESLSESQSISESESLSESQSISESESLSESQSISESESLSESQSISESESLSESQSISESESLSESQSISESESLSESQSISESESLSESQSISESESLSESQSISESESLSESQSISESESLSESQSVSESESLSESQSISESESLSESQSISESESLSESQSISESESLSESQSISESESLSESQSISESESLSESQSISESESLSESQSISESESLSESQSISESESLSESQSISESESLSESQSISESESLSESQSISESESLSESQSISESESLSESQSISESESLSESQSISESESLSESQSVSESESLSESQSISESESLSESQSISESESLSESQSISESESLSESQSISESESLSESQSISESESLSESQSISESESLSESQSISESESLSESQSVSESESLSESQSISESESLSESQSISESESLSESQSISESESLSESQSISESESLSESQSISESESLSESQSISESESLSESQSISESESLSESQSISESESLSESQSISESESLSESQSISESESLSESQSISESESLSESQSISESESLSESQSISESESLSESQSISESESLSESQSISESESLSESQSISESESLSESQSISESESLSESQSISESESLSESQSISESESLSESQSISERESLSESQSISESESLSESQSISESESLSESQSISESESLSESQSISESESLSESQSISESESLSESQSISESESLSESQSISESESLSESQSISESESLSESQSISESESLSESQSISESESLSESQSVSESESLSESQSISESESLSESQSISESESLSESQSISESESLSESQSISESESLSESQSISESESLSESQSISESESLSESQSISESESLSESQSISESESLSESQSISESESLSESQSISESESLSESQSISESESKSLPNTGTGEKISNYPGILGGLLSILGISLLKRKDREKKLGQKSNK
notes: also called L. lactis expressing SpsO; putative MSCRAMM SpsO
B2: SpsL of S. pseudintermedius ED99, full-length, expressed on L. lactis MG1363 (pOri23) (other)
chain: NEDVTETTGRNSVTTQASEQHLQVEAVPQEGNNVNVSSVKVPTNTATQAQEDVASVSDVKAHADDALQVQESSHTDGVSSEFKQETAYANPQTAETVKPNSEAVHQSEYEDKQKPVSSSRKEDETMLQQQQVEAKNVVSAEEVSKEENTQVMQSPQDVEQHVGGKDISNEVVVDRSDIKGFNSETTIRPHQGQGGRLNYQLKFPSNVKPGDQFTIKLSDNINTHGVSVERTAPRIMAKNTEGATDVIAEGLVLEDGKTIVYTFKDYVNGKQNLTAELSVSYFVSPEKVLTTGTQTFTTMIGNHSTQSNIDVYYDNSHYVDGRISQVNKKEAKFQQIAYINPNGYLNGRGTIAVNGEVVSGTTKDLMQPTVRVYQYKGQGVPPESITIDPNMWEEISINDTMVRKYDGGYSLNLDTSKNQKYAIYYEGAYDAQADTLLYRTYIQSLNSYYPFSYQKMNGVKFYENSASGSGELKPKPPEQPKPEPEIQADVVDIIEDSHVIDIGWNTAVGEESGANQGPQEEITENHDIEVIEENNLVEMTEDTAVGEESGANQGPQEEITENHDIEVIEENNLVEMTEDTALEEESGANQGPQEEITENHDIEVIEENNLVEMTEDTALEEESGANQGPQEEITENHDIEVIEENNLVEMTEDTAVGEESGANQGPQEEITENHDIEVIEENNLVEMTEDTAVGEESGANQGPQEEITENHDIEVIEENNLVEMTEDTALEEESGANQGPQEEITENHNIEVIEENNLVEMTEDTAVGEESGANPGPQEEVTENQPQQEEIMENQEVEKKGDSNLVESTKTPKAEESVSVQPTLEDKNTKNHVNTVVVNTKVSEVKEKDPHHTKALPDTGTTSRSHSMMIPLLLVAGSVVLLRRKKKHSKVN
notes: also called L. lactis expressing SpsL; putative MSCRAMM SpsL

What was measured:
Assay in all cases: solid phase adherence assay, L. lactis on coated plates, absorbance 590 nm
[1] = biological target: T1, human fibrinogen
[2] = biological target: T2, bovine fibrinogen
[3] = biological target: T3, recombinant mouse cytokeratin 10

| Binder | binding result [1] | binding result [2] | binding result [3] |
| --- | --- | --- | --- |
| B1 | no binding (tested: 1 µg Fg coated per well) | no binding (tested: 1 µg Fg coated per well) | no binding (tested: 1 µg CK10 coated per well) |
| B2 | no binding (tested: 1 µg Fg coated per well) | no binding (tested: 1 µg Fg coated per well) | no binding (tested: 1 µg CK10 coated per well) |
